Test: yeast display, Sf9 membrane polyspecificity reagent, FACS + sequencing; frameworks hold sequencing errors
Outline: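 Galactose-induced (36–48 hours) yeast carrying a synthetic nanobody display library were exposed to 10% biotinylated, detergent-solubilized Sf9 membrane reagent at 4 °C for 1 hour. FACS followed streptavidin microbead enrichment, using low and high (top ~1%) gates for expression (anti-HA) and reagent binding (streptavidin). Colony PCR, MiSeq 2 × 250 sequencing and CDR-length filtering followed. Labels for polyreactivity reflect the gate of origin.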

Row | Sequence | polyreactivity (PSR sort gate)
1 | QVQLVESGGGLVQAGGSLRLSCAASGFIFYYYTMGWYRQAPGKERELVAAISSSGGRTYYADSVKGRFTISRDNAKNTVYLQMNSLKPEDTAVYYCAALYRWNQFPYFKGGYWGQGTQVTVSS | high polyreactivity
2 | QVQLVESGGGLVQAGGSLRLSCAASGYTFGVYVMGWYRQAPGKERELVAAISGSTYYADSVKGRFTISRDNAKNTVYLQMNSLKPEDTAVYYCAAESYFFSPRTREKFDYWGQGTQVTVTS | low polyreactivity
3 | QVQLVESGGGLVQAGGRLRLRCAASGSIFYAYDRGWYRQAPGKERELVAAINWSGDSTYYADSVKGRFTISRDNAKNTVDLQMNSLKPEDTALYYCAAVSGSGDSGEYDYWGQGTQVTVSS | low polyreactivity
4 | QVQLVETGGGLVQAGGSFRLSCAASGGIFRTYAKGWYRQAPGKERELVAAISRSGGSTYYADSVKGRFTISRDNAKNTVYLQMNSLKPEDTAVYYCAASRPYYPLYGYWGQGTQVTVSS | high polyreactivity
5 | QVQLVESGGGLVQAGGSLRLSCAASGRTLVLYVMGWYRQAPGKERELVAAISSGGSTNYADSVKGRFTISRDNAKNTVYLQMNSLKPEDTAVYYCAARFVLRRDYGYGGQGTQVTVSS | high polyreactivity
6 | QVQLVESGGGLVQAGGSLRLSCAASGFTFYRYAMGWYRQAPGKERELVAAFSGSGGSTYYADSVKGRFTISRDNAKNTVYLQMNSLKPEDTAVYYCNTVWFYGAKYDYWGQGTQVTVSS | high polyreactivity
7 | QVQLVESGGGLVQAGGSLRLSCAASGSTFVRYAMGWYRQAPGKERELVASISSSGSTYYADSVKGRFTISRDNAKNTVYLQMNSLKPEDTAVYYCAKQYGGRYGYWGQGTQVTVSS | low polyreactivity
8 | QVQLVESGGGLVQAGGSLRLSCAASGLIFRYYAMGWYRQAPGKERELVASISWHGGSTNYADSVKGRFTISRDNAKNTVYLQMNSLKPEDTAVYYCAADAWVATTILHDYWGQGTQVTVSS | high polyreactivity
9 | QVQLVESGGGLVQAGGSLRLSCAASGSIFHYYAMGWYRQAPGKERELVAAISWSGGRTYYADSVKGRFTISRDNAKNTVYLQMNSLKPEDTAVYYCAADYDGSFNTPYLLDPYDYWGQGTQVTVSS | high polyreactivity
10 | QVQLVESGGGLVQAGGSLLLSCAASGRIFYRYAMGWYRQAPGKERELVAAISRGGSTYYADSVKGRYTISRDNAKNTVYLQMNSLKPEDTAVYYCAKDGYWGYDYWGQGTQVTVSS | high polyreactivity
11 | QVQLVESGGGLVQAGGSLRLSCAASGRTFGFYAMGWYRQAPGKERELVATITYRGSGGSTYYADSVKGRFTISRDNAKNTVYLQMNSLKPEDTAVYYCAADKRYSRYFSFDYWGQGTQVTVSS | high polyreactivity
12 | QDQLVESGGGLVQAGGRLRLICAAAGLIFVSNAMGWYRQAPGKERELFASISWSGGSTYYADSVKGRFTISRDNAKNTVYLQMNSLKPEDTAVYYCAAAKYVTYLSIYYYWGQGTQVTVSS | high polyreactivity
13 | QVQLVESGGGLVQAGGSLRLSCAASGRIFASYAMGWYRQAPGKERELVAAISWSGGSTNYADSVKGRFTISRDNAKNTVYLQMNRLKPEDTAVYYCAKKKRRGYGYDYWGQGTQVTVSS | high polyreactivity
14 | QVQLVESGGGLVQAGGSLRLSCAASRSIFYFYAMGWYRHAPWKERELVAAINSGGTTNYADSVKGRFTISRDNAKNTVYSQMNSLKPEDTAVYYCAARLLIRYYYWGQGTLVTVSS | high polyreactivity
15 | QVQLVESGGGLVQAGGSLRLSCAASGFTFSINAMGWYRKAPGKERELVAGISWSGGITYYADSVKGRFTISRDNAKNTVYLQMNSLKPEDTAVYYCNTDYGLTTPVVWDDYWGQGTQVTVSS | low polyreactivity
16 | QVQLVESGGGLVQAPGSLRLSSAASGRIFNQYGMGWYRQAPGKERELVAAIRSGDSTNYADSVKGRFTISRDNAKNTVYLQMNSLKQEDSAVYYCARDRPGDYAGYYYWGKGTQVTVSS | low polyreactivity
17 | QVQLVESGGGLVQAGGSLRLSCAASGRIFWYYAMGWYRQAAGKERELVAAISSGTTKYADSVKGRFTISRDNAKNTVYLQMNSLKPEDTAVYYCNAAAYYPTNYGGYLFEYWGQGTQVTVSS | low polyreactivity
18 | QVQLVESGGGLVQAGGSLRLSCAASGRTLWIYAMGWYRQAPGKERELVASITTRGGSTYYADSVKGRFTISRDNAKNTVYLQMNSLKPEDTAVYYCAAEGYTYYTYYPHDYWGQGTQVTVSS | high polyreactivity
19 | QVQLVESGGGLVQAGGSLRLSCAASGIIFYYYAMGWYRQAPGKERELVASISRSGTDTYYADSVKGRFTISRDTAKNTVYLQMNSLKPEDTAVYYCAARGYYRWAAYADWRFNYWGQGTQVTVSS | high polyreactivity
20 | QVQLVESGGGLVQAGGSLRLRCAASGFIFRLYAMGWYIQAPGKERELVASITQGGSTYYADSVKGRFTISRDNAKNTVYLLMNSLKPEDTAVNDCAATYLHVYRRRFYYWGQGTQVSVSS | high polyreactivity
21 | QVQLVESGGGLVQAGGSLRLRCAASARTFRDYAMGCYRQATGKERELVAVIDSGGGTDYADSVKGRFTISRDNAKNTVYLQMNSLKPEDTAVYYCAADSSVRYRDTEDYWGQGTQVTVSS | low polyreactivity
22 | QVQLVESGGGLVQAGGSLRLSCAASGIIFQRNDMGWYRQAPGKERELVANIRDGGITYADSVKGRFTISRDNAKNTVYLQMNSLKPEDTAVYYCARDDTSPGFGDQSSNAAYYYWGQGTQVTVSS | low polyreactivity

Row | Sequence | polyreactivity (PSR sort gate)
23 | QVQLVESRGGLVQAGGSLRLSCAASGRNFPINTMGWYRQAPGKERELVAAIRTSGSSTYADSVKGRFTISRDNAKNSVYLQMNSLKPEDTAVYYCNTKYPGRGYYWGQGTQVTVSS | high polyreactivity
24 | QVQLVESGGGLVQAGGSLRLSCAASGFTFYKYAMGWYRQAPGKERELVAAISRRGTSTYYADSVKGRFTISRDNAKNTVYLQMNSLKPEDTAVYYCNRDVSLSAFDYWGQGTQVTVSS | high polyreactivity
25 | QVQLVESGGGLVQAGGSLRLSCAASGSTFYYYAMGWYRQAPGKEREFVASISSRGTSTYYADSVKGPFTISRDNAKNTVYLQMNSLKPEDTAVYYCAARGWGPTRAYDYWGQGTQVTVSS | high polyreactivity
26 | QVQLVESGGGLVQAGGSLRLSCAASGIIFSAYAMGWYRQPPGKERELVAVIDSDGDGTYYADSVKGRFTISRDNAKNTVYLQMNSLKPEDTAVYYCAADYEYTRVEGWFIGFDEYGYWGQGTQVTVSS | low polyreactivity
27 | QVQLVESGGGLVQAGGRLRLSCAASGYTFKFNAMGWYRQAPGKETELVAGITRGGGTYADSVKGRFTISRDNAKNTVYLQMNSLKPDDTAVSYCASAWGAPSRFFSAFDYWGQGTQVTVSS | low polyreactivity
28 | QVQLVESGGGLVQAGGSLRLSCAASGSTFGGYTMGGYRQAPGKERELVADITSSGSTNYADSLKGRFTISRDNAKNSVYLQMNSLKPEDTAVYYCAVRTYPGRFWYWGVDMVYWGQGTQVTVSS | low polyreactivity
29 | QVQLVESGGGLVQAGGSLRLSCAASGSTLYLNAMGWYRQAPGKERELDASISNGVNTNYADSVKGRFTISRDNAKNTVYLLMNSLKPEDTAVYYCAKEKRFQKTVHRKPAYDYWGQGTQVTVSS | low polyreactivity
30 | QVQLVESGGGLVQAGGSLRLSCAASGRIFYRNAMGRYRQAPGKERELVAAISSSGGRTYYADSVKGRFTISRDNAKITVYFQMNSLKPEDTAVYYCNRAYYLDSGYDSWGQGTQVTVSS | high polyreactivity
31 | QVQLVESGGGLVQAGGSLRLSCAASGRIFAWYVMGWYRQAPGKEREFVAAIRWRSGSTHYADSVKGRFTISRDNAKNTVYLQMNSLKPEDTAVYYCARDVHGLLDYWGQGTQVTVSS | high polyreactivity
32 | QVQLVESGGGLVQAGGSLRLSCAASGIIFRGYVMGWYRQAPGKERELVAAISTSGGRTSYADSVKGRFTISRDYAKNTVYLQMNSLKPEDTAVYYCAARPLYSYSQWGYGYWGQVTQVTVSS | high polyreactivity
33 | QVQLVESGGGLVQAGGSLRLSCAASGIILDPNAMGWSRQAPGKERELVAGITRSGVSTYYAESVKGRFTISRDNAKNTVYLKMNSLKPEDTAVYYCAKDRISGSKGEDDDYWGKGTQVTVSS | low polyreactivity
34 | QVQLVESGGGLVQAGGSLRLTCAASGSIFSRYAMGWYRQAPGKERELVAAISQRAGSTYYADSVKGRFTISRDNAKNTVYLQMNSLKPEDTAVYYCAARRRGRKERGEDYWGQGTQVTVSS | high polyreactivity
35 | QVQLVESGGGLVQAGGCLRLSCAASGSIFGYNAMGWYRHAPGKERELVAAISWRGGSTYYADSVKGRFTISRDNAKNSVYLQMNSLKPEDTAVYYCNTLYPYRHDYAGDYWGQGTQVTVSA | high polyreactivity
36 | QVQLVESGGGLVQAGVSLRLRCAASASILSYYAMGWYRHAPGKERELVAAISRSGCTTYYADSVKGRFTISRDYAKNTVYLQMNSLIPEDTAVYYCAAVDRYYAYRDYYYWGQGTQVTVSS | high polyreactivity
37 | QVQLVESGGGLVQAGGSLRLSCAASGFTFFYNAMGWYRQAPGKEREFVAAISGRGGTTYYADSVKGRFTISRDNAKNTVYLQMNSLKPEDTAVYYCAARSVSTLRYTSRKLRYDYWGQGTQVTVSS | high polyreactivity
38 | QVQLVESGGGLVQAGGSLRLRCAASGSIIGIYAMGWYRQAPGKERELVAAISWSGGSTYYADSVKGRFTISRDNAKNTVYLQMISLKPVDTAVYYCAARGHYQYYWGQGTQVTVSS | low polyreactivity
39 | QVQLVESGGGLVQAGGSLRLSCAASGSTVYYNAMGWYRQAPGKERELVADITTSGDSTYYADSVKGRFTISRDNAKNTVYFQMNSLKPEDTAVYYCNAGVVGDYPYWGLMDYWGQGTQVTVSS | high polyreactivity
40 | QVQRVESGGGLVQAGGSLRLSCAASGLTFSYNAMGWYRQAPGKERELVAAITVSGGRTYYADSVKGRFTISRDNAKNTVYLQMNSLKPEDTAVYYCNADYDEGYYGYLRYDYDYWGQGTQVTVSS | high polyreactivity
41 | QVQLVESGGGLVQAGGSLRLSCAASGSIFLSNAMVWYRQAPGKERDLVADIDWTGGDTYYADSVKGRFTISRDNAKNTVYLQMNSLKPEDTAVYYCAADYGSRNLLTEYGYWGQGTQVTVSS | low polyreactivity
42 | QVQLVESGGGLVQAGGSLRLSCAASGLTFAKYAMGWYRQAPGKERELVAAIRSGDDTTYADSVKGRFTISRDNAMNTVYLQMISLKPEDTAVYYCAARPIHYPPYYYWGQGTQVTVSS | high polyreactivity
43 | QVQLVESGGGLVQAGGSLRLSCAASGSTSVGNAMGWYRQAPGKERELVAAISRIGGTTYYADSVKGRFTISRDNAKNTVYLQMNSLKPEDTAVYYCNVLKRYWSGRVDYWGQGTQVTVSS | high polyreactivity
